# Reference: publication PMC10570038
# Biological target: RBPMS-A dC20 (rat) (UniProt A0A8I6G705)
# Experiment: EMSA
# Details: apparent; EMSA: 10 nM RNA, 25 mM HEPES pH 7.9, 100 mM KCl, 2 mM MgCl2, 0.625 mM DTT, 0.1 mg/ml BSA, 5% glycerol, 30 C 1 h, then 5 mg/ml heparin 10 min; 5% native PAGE in …
# RBPMS-A dC20 (rat), sequence (A0A8I6G705 1-177): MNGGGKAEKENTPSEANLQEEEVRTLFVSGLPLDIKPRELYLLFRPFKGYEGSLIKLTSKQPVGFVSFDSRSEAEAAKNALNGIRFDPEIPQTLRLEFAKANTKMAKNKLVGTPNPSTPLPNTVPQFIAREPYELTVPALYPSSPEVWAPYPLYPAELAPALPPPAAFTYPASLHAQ
sequence,measurement,value
GUCUACGCACCCUCAACCCGCACCUUGCGGGAUG [(CAC)2],Kd,2.5 µM
